Starred links: 1 amine or outer side, 2 acyl side, 3 side chain; linkers in the order of their positions; H or OH if unused. Positions of bridges follow the written chain, without caps; N, C: chain ends. No end group written: not given here. TATA = O=C(CC[*:1])N1CN(C(=O)CC[*:2])CN(C(=O)CC[*:3])C1
Biological target: T1, Human EphA2 (Ecto) (Human, UniProt P29317 24-537)
T1 construct: extracellular domain; in-house)
Assay: FP competition; tracer Reference Compound C
Description: Peptides without a fluorescent tag were tested in competition with a peptide with a fluorescent tag and a known Kd (Table 2). Peptides were diluted to an appropriate concentration in assay buffer as described in the direct binding assay with a maximum of 5% DMSO, then serially diluted 1 in 2. […] Measurements were conducted as for the direct binding assay, however the gain was determined prior to the first measurement. Data analysis was in Systat Sigmaplot version 12.0 where the mP values were fit to a user defined cubic equation to generate a Ki value: […]

T1 sequence (P29317 24-537): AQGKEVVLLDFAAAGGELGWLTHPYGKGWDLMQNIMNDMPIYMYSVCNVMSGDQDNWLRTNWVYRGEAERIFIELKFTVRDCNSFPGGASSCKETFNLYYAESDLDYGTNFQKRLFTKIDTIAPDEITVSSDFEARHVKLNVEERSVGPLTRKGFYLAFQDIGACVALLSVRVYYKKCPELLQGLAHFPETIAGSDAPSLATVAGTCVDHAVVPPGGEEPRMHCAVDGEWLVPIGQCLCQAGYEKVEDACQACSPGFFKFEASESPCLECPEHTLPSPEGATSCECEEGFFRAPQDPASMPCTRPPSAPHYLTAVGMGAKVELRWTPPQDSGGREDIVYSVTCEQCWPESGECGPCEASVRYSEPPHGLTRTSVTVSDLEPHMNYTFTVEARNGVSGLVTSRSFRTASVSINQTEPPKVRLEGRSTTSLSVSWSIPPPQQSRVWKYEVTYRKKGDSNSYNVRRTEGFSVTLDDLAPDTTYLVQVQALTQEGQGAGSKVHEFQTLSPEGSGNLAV

Binder | Ki [nM]
ACSSCWAYPDSVCA (linker 2-5-13 via TATA) [Bicycle Compound Number 38 (TATA scaffold), ACSSCWAYPDSVCA] | 400
ACPDWGKYCAYPDTICA (linker 2-9-16 via TATA) [Bicycle Compound Number 36 (TATA scaffold), ACPDWGKYCAYPDTICA] | 160
ACGFMGLEPCELFCMPK (linker 2-10-14 via TATA (inferred)) [Bicycle Compound Number 47 (TATA scaffold), ACGFMGLEPCELFCMPK] | 185
ACGFMGLEPCVTYCA (linker 2-10-14 via TATA) [Bicycle Compound Number 43 (TATA scaffold), ACGFMGLEPCVTYCA] | 234
ACGFMGLVPCEVHCA (linker 2-10-14 via TATA) [Bicycle Compound Number 41 (TATA scaffold), ACGFMGLVPCEVHCA] | 155
ACVPDRRCAFRDVCLTG (linker 2-8-14 via TATA) [Bicycle Compound Number 28 (TATA scaffold), ACVPDRRCAFRDVCLTG] | 1700
ACGFMGLEPCELFCA (linker 2-10-14 via TATA (inferred)) [Bicycle Compound Number 46 (TATA scaffold), ACGFMGLEPCELFCA] | 81.7
ACGFMGLEPCETFCA (linker 2-10-14 via TATA) [Bicycle Compound Number 40 (TATA scaffold), ACGFMGLEPCETFCA] | 188
ACGFMGLEPCEMVCA (linker 2-10-14 via TATA) [Bicycle Compound Number 42 (TATA scaffold), ACGFMGLEPCEMVCA] | 320
ACVPDRRCAFQDVCDHE (linker 2-8-14 via TATA) [Bicycle Compound Number 27 (TATA scaffold), ACVPDRRCAFQDVCDHE] | 159
ACRNWGMYCAYPDTICA (linker 2-9-16 via TATA) [Bicycle Compound Number 35 (TATA scaffold), ACRNWGMYCAYPDTICA] | 282
ACRGEWGYCAYPDTICA (linker 2-9-16 via TATA) [Bicycle Compound Number 34 (TATA scaffold), ACRGEWGYCAYPDTICA] | 348
ACQSCWAYPDTYCA (linker 2-5-13 via TATA) [Bicycle Compound Number 39 (TATA scaffold), ACQSCWAYPDTYCA] | 321
ACTKPTGFCAYPDTICA (linker 2-9-16 via TATA) [Bicycle Compound Number 33 (TATA scaffold), ACTKPTGFCAYPDTICA] | 268

Further binders by falling Ki, results first:

Ki [nM] | Binder
144 | ACGFMGLEPCELYCAHT (linker 2-10-14 via TATA (inferred)) [Bicycle Compound Number 49 (TATA scaffold), ACGFMGLEPCELYCAHT]
142 | ACGFMGLVPCNVFCA (linker 2-10-14 via TATA (inferred)) [Bicycle Compound Number 45 (TATA scaffold), ACGFMGLVPCNVFCA]
140 | ACGFMGLEPCEMYCA (linker 2-10-14 via TATA (inferred)) [Bicycle Compound Number 50 (TATA scaffold), ACGFMGLEPCEMYCA]
130 | ETVCLPDSRCAYMNVCA (linker 4-10-16 via TATA) [Bicycle Compound Number 23 (TATA scaffold), ETVCLPDSRCAYMNVCA]
127 | ACGFMGLEPCELVCA (linker 2-10-14 via TATA) [Bicycle Compound Number 44 (TATA scaffold), ACGFMGLEPCELVCA]
115 | ACPLVNPLCLTSGWKCA (linker 2-9-16 via TATA (inferred)) [Bicycle Compound Number 52 (TATA scaffold), ACPLVNPLCLTSGWKCA]
97.3 | ACVPDRRCAFENVCVDH (linker 2-8-14 via TATA) [Bicycle Compound Number 25 (TATA scaffold), ACVPDRRCAFENVCVDH]
84.4 | ACGFMGLVPCELYCADN (linker 2-10-14 via TATA (inferred)) [Bicycle Compound Number 51 (TATA scaffold), ACGFMGLVPCELYCADN]
30 | ACPLVNPLCLHPGWTCA (linker 2-9-16 via TATA (inferred)) [Bicycle Compound Number 64 (TATA scaffold), ACPLVNPLCLHPGWTCA]

From patent US11814447B2, “Peptide ligands for binding to EphA2” (BICYCLERD LIMITED, priority 2018, dated 2023)
